± gives the standard deviation of the averaged measurements.
B1: library; a variant is named by its letters at N, in order (parent)
chain: GCUGUCACCGGUGCUUGGUACGUUAUAUUCAGCCGGUCUGAUGAGUCUNNNNNNAGACGAAACAGC

Key:
(6R,S)-folinic acid [1] = variants of: B1; assay: FACS-Seq fitted mean relative fluorescence mCherry/BFP without ligand (log10 relative fluorescence); HEK293T overexpressing SLC46A1; higher = higher reporter protein expression; settings: without (6R,S)-folinic acid; ligand present: no
Outline: (§1)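 An mCherry reporter containing the ribozyme switch and an EF1α-BFP marker were introduced by lentivirus into HEK293T libraries. Cells were enriched, incubated 48 h with or without ligand, sorted into 6 bins by mCherry/BFP, and bin genomic DNA was PCR-amplified, barcoded and sequenced on MiSeq. Fluorescence represents the normalized fitted normal mean of the bin counts. Fitting was done on log10(mCherry/BFP), scaling to five spiked-in control ribozymes.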

(6R,S)-folinic acid [2] = variants of: B1; assay: normalized RNA/DNA level without ligand (relative to sTRSVctl = 100) (log10 (% of sTRSVctl)); HEK293T overexpressing SLC46A1; higher = less ribozyme self-cleavage, higher mRNA level; settings: without (6R,S)-folinic acid; ligand present: no
Outline: (§2)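 For each 6-well well, 4 µg of library plasmid encoding mCherry-linked ribozyme switches, or eGFP-linked ones in some ligand experiments, was transfected into HEK293T. Any ligand was added 1 h before transfection, and RNA was extracted with EDTA 72 h after it, then reverse-transcribed, amplified, barcoded and sequenced. RNA level was obtained by dividing RNA reads by DNA reads, normalizing to a spiked-in non-cleaving sequence or to the top sequences, then scaling and log-transforming. The top set was 25 sequences, scaling was ×100 with log10, and ≥100 DNA reads were required.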

(6R,S)-folinic acid [3] = variants of: B1; assay: FACS-Seq fitted mean relative fluorescence mCherry/BFP with ligand (log10 relative fluorescence); HEK293T overexpressing SLC46A1; ligand concentration (+) FACS-Seq: 6 mM; higher = higher reporter protein expression; settings: with (6R,S)-folinic acid; ligand present: yes
Outline: as §1

(6R,S)-folinic acid [4] = variants of: B1; assay: normalized RNA/DNA level with ligand (relative to sTRSVctl = 100) (log10 (% of sTRSVctl)); HEK293T overexpressing SLC46A1; ligand concentration (+) RNA-Seq: 6 mM; higher = less ribozyme self-cleavage, higher mRNA level; settings: with (6R,S)-folinic acid; ligand present: yes
Outline: as §2

Variant	FACS-Seq fitted mean (log10) ((6R,S)-folinic acid [1])	normalized RNA/DNA level without ligand (log10) ((6R,S)-folinic acid [2])	FACS-Seq fitted mean (log10) ((6R,S)-folinic acid [3])	normalized RNA/DNA level with ligand (log10) ((6R,S)-folinic acid [4])
GGGAGC	0.342 ± 0.098	1.831 ± 0.0028	0.435 ± 0.029	1.96 ± 0.029
GGGAGG	0.108 ± 0.032	2.014 ± 0.004	0.269 ± 0.081	2.04 ± 0.032
GGAUUU	0.647 ± 0.23	2.02 ± 0.034	0.596 ± 0.19	2.01 ± 0.048
GGAUUC	0.835 ± 0.03	2.045 ± 0.0076	0.746 ± 0.041	2.021 ± 0.016
UGCAUU	0.0991 ± 0.29	1.987 ± 0.01	-0.057 ± 0.47	2.01 ± 0.043
UGCAUG	0.298 ± 0.025	1.734 ± 0.0064	0.712 ± 0.11	1.97 ± 0.026
GGGUGA	0.435 ± 0.078	2.067 ± 0.0049	0.36 ± 0.31	2.07 ± 0.036
GGGUGC	0.427 ± 0.079	1.969 ± 0.01	0.461 ± 0.023	2.011 ± 0.007
CGCUUU	-0.0215 ± 0.022	2.017 ± 0.0068	0.0431 ± 0.039	2 ± 0.063
UGGACA	0.24 ± 0.025	1.95 ± 0.0054	0.186 ± 0.017	2.019 ± 0.019
UGGACC	0.168 ± 0.11	2.01 ± 0.033	0.0739 ± 0.15	1.97 ± 0.033
UGGACG	0.175 ± 0.0034	1.778 ± 0.013	0.472 ± 0.059	1.97 ± 0.029
UGCCUG	0.68 ± 0.017	1.875 ± 0.016	0.78 ± 0.085	2.02 ± 0.021
UGGAAG	0.369 ± 0.058	1.653 ± 0.0055	0.695 ± 0.017	1.96 ± 0.039
CGCAGC	0.491 ± 0.09	2.01 ± 0.033	0.645 ± 0.4	2.01 ± 0.031
AGGAGA	0.26 ± 0.062	1.931 ± 0.007	0.172 ± 0.078	2.018 ± 0.017
AGGAGG	0.585 ± 0.15	1.922 ± 0.0095	0.614 ± 0.2	2.05 ± 0.03
AGCAAA	0.455 ± 0.047	1.979 ± 0.004	0.532 ± 0.21	2 ± 0.028

Variant	FACS-Seq fitted mean (log10) ((6R,S)-folinic acid [1])	normalized RNA/DNA level without ligand (log10) ((6R,S)-folinic acid [2])	FACS-Seq fitted mean (log10) ((6R,S)-folinic acid [3])	normalized RNA/DNA level with ligand (log10) ((6R,S)-folinic acid [4])
AGCGCA	0.49 ± 0.034	2.01 ± 0.021	0.548 ± 0.31	2.04 ± 0.029
GGGGAA	0.571 ± 0.12	1.996 ± 0.0088	0.428 ± 0.4	2.06 ± 0.034
UGGAGG	0.042 ± 0.039	1.641 ± 0.0022	0.458 ± 0.14	1.96 ± 0.031
UGGAGU	0.504 ± 0.12	1.894 ± 0.0062	0.658 ± 0.037	1.99 ± 0.035
UGGAGA	0.189 ± 0.11	1.83 ± 0.026	0.388 ± 0.12	2.01 ± 0.044
GGCCAU	0.522 ± 0.091	2.05 ± 0.023	0.337 ± 0.19	2.01 ± 0.063
GGCCAA	0.479 ± 0.052	2.045 ± 0.013	0.409 ± 0.049	2.024 ± 0.0077
GGGACA	0.123 ± 0.064	1.997 ± 0.016	0.248 ± 0.14	2 ± 0.063
GGGACU	0.111 ± 0.0086	2.023 ± 0.011	0.0545 ± 0.19	2.008 ± 0.019
UGCCAC	0.366 ± 0.066	1.985 ± 0.017	0.438 ± 0.13	1.977 ± 0.013
UGCCAA	0.194 ± 0.021	1.956 ± 0.015	0.168 ± 0.2	2.01 ± 0.0051
AGGAUA	0.115 ± 0.081	1.945 ± 0.0066	0.116 ± 0.17	2 ± 0.049
CGGUGU	0.22 ± 0.22	1.993 ± 0.015	0.278 ± 0.12	1.98 ± 0.046
CGCAAC	0.453 ± 0.13	2.027 ± 0.0066	0.417 ± 0.14	1.99 ± 0.013
AGAUCA	-0.134 ± 0.025	2.01 ± 0.005	-0.625 ± 0.07	2 ± 0.058
AGGUCC	0.442 ± 0.027	2.04 ± 0.0067	0.429 ± 0.22	2.03 ± 0.021
CGGGAU	0.211 ± 0.017	1.97 ± 0.029	0.0466 ± 0.17	2 ± 0.049
CGGGAA	0.288 ± 0.27	1.98 ± 0.024	0.519 ± 0.063	2.02 ± 0.046

— the supplement of paper PMC6757056
